Data published in US7550427B2, “Poly-pegylated protease inhibitors” (Dyax Corp., priority 2003, dated 2009).
Where two headings read alike, the source gives them in different places. Where no end group is shown, it is not given here.

Columns and labels:
[1] = Allometric extrapolation of clearance to humans; format: in vivo; conditions: 70 Kg human
Excerpt: The data were plotted using a double 4-parameter exponential decay.

[2] = Plasma clearance in mice of 125I-labeled protein; conditions: for Clearance (%) alpha phase: fraction of label cleared through alpha phase; for Clearance (%) beta phase: fraction of label cleared through beta phase; for T1/2 alpha / T1/2 beta: plasma clearance, tail vein injection
Protocol: (§1) The protein to be tested is labeled with iodine (^125I) using the iodogen method (Pierce). The reaction tube is rinsed with reaction buffer (25 mM Tris, 0.4 M NaCl, pH 7.5). The tube is emptied and then replaced with 0.1 ml of reaction buffer and 12 μl of carrier free iodine-126, about 1.6 mCi. After six minutes, the activated iodine is transferred to a tube containing the protein to be tested. After nine minutes, the reaction is terminated with 25 μl of saturated tyrosine solution. The reaction can be purified on a 5 ml D-salt polyacrylamide 6000 column in Tris/NaCl. HSA can be used to minimize sticking to the gel.
(§2) A sufficient number of mice (about 36) are obtained. The weight of each animal is recorded. In the case of mice, the animals are injected in the tail vein with about 5 μg of the protein to be tested. Samples are recovered at each time point per animal, with four animals per time point, at approximately 0, 7, 15, 30, and 90 minutes, 4 hours, 8 hours, 16 hours, and 24 hours post injection. Samples (about 0.5 ml) are collected into anti-coagulant (0.02 ml EDTA). Cells are spun down and separated from plasma/serum. Samples can be analyzed by radiation counting and SEC peptide column on HPLC with inline radiation detection.
(§3) Data can be fit to a bi-exponential (equation 2) or a tri-exponential (equation 3) decay curve describing “fast”, “slow”, and “slowest” phases of in vivo clearance: y=Ae^−αt+Be^−βt Equation 2 y=Ae^−αt+Be^−βt+Ce^−γt Equation 3 Where: • y=Amount of label remaining in plasma at time=t post-administration • A=Total label in “fast” clearance phase • B=Total label in “slow” clearance phase • C=Total label in “slowest” clearance phase • α=“Fast” clearance phase decay constant • β=“Slow” clearance phase decay constant • γ=“Slowest” clearance phase decay constant • t=Time post administration
(§4) The α, β, and γ phase decay constants can be converted to half-lives for their respective phases as: α Phase Half-life=0.69 (1/α) β Phase Half-life=0.69 (1/β) γ Phase Half-life=0.69 (1/γ)
(§5) In the case where the data are fit using the bi-exponential equation, the percentages of the total label cleared from in vivo circulation through the α and β phases are calculated as: % α Phase=[A/(A+B)]×100 % β Phase=[B/(A+B)]×100
(§6) In the case where the data are fit using the tri-exponential equation, the percentages of the total label cleared from in vivo circulation through the α and β phases are calculated as: % α Phase=[A/(A+B+C)]×100 % β Phase=[B/(A+B+C)]×100 % γ Phase=[C/(A+B+C)]×100

[3] = Plasma clearance in rabbit of 125I-labeled protein; conditions: for Clearance (%) alpha phase: fraction cleared through alpha phase; for Clearance (%) beta phase: fraction cleared through beta phase; for Clearance (%) gamma phase: fraction cleared through gamma phase; for T1/2 alpha / T1/2 beta / T1/2 gamma: plasma clearance, ear vein injection
Protocol: (§7) The following methods can be used to evaluate the pharmacokinetics (PK) of proteins such as poly-PEGylated proteins in animals, e.g., mice and rabbits. The protein to be tested is labeled with iodine (^125I) using the iodogen method (Pierce). The reaction tube is rinsed with reaction buffer (25 mM Tris, 0.4 M NaCl, pH 7.5). The tube is emptied and then replaced with 0.1 ml of reaction buffer and 12 μl of carrier free iodine-126, about 1.6 mCi. After six minutes, the activated iodine is transferred to a tube containing the protein to be tested. After nine minutes, the reaction is terminated with 25 μl of saturated tyrosine solution. The reaction can be purified on a 5 ml D-salt polyacrylamide 6000 column in Tris/NaCl. HSA can be used to minimize sticking to the gel.
(§8) For rabbits, the material is injected into the ear vein. Samples can be collected at 0, 7, 15, 30, 90 minutes, 4, 8, 16, 24, 48, 72, 96, 120, and 144 hours post-injection. Samples can be collected and analyzed as for mice.
as §3, §4, §5, §6

[4] = Solubility upon dilution in Hepes buffer for the PEGylation reaction; format: physicochemical; conditions: stock ~10 mg/ml diluted 1:1 with 0.2M Hepes, pH 7.8-8.5
Protocol: • mPEG-SPA, MW 5,000 Da, NEKTAR Therapeutics, cat. no.: 2M4M0H01 (succinimidyl ester of methoxy-capped polyethylene glycol propionic acid) • DX-88 API, MW 7,054 Da, ˜10 mg/ml in PBS, pH 7.0 • DX-890 API, MW 6,231 Da, ˜10 mg/ml in 10 mM NaAc, pH 3.0 • DX-1000 API, MW 7,167 Da, ˜10 mg/ml in PBS, pH 7.0 • 0.2-0.3M Hepes, pH 7.8-8.5 • 1M Tris, pH8.0 • 1N HCl PEGylation Reaction I: • 1) Calculate the amount of PEG needed for reacting the Kunitz domain polypeptide at approximately 10:1 molar ratio of PEG:reactive group. For example, DX-890 has 5 total reactive groups, so a 50:1 molar ratio of PEG:DX-890 is used. Depending upon the Kunitz domain polypeptide and/or reaction conditions, a ratio of 25:1 to 50:1 is typically used. For example, for PEGylating 10 mg of DX-890 (MW 6,231 Da) at a 50:1 molar ratio of PEG:peptide, 401 mg of PEG (MW 5,000 Da) would be used. • 2) Just prior to reacting the Kunitz domain polypeptide with the PEG, dilute the required volume of Kunitz domain polypeptide stock 1:1 with 0.2M Hepes, pH 7.8-8.5 buffer. The peptide stock is typically ˜10.0 mg/ml. Therefore upon dilution, the concentration of the Kunitz domain polypeptide is ˜5.0 mg/ml in 0.1M Hepes, pH 7.8-8.5 buffer. […] Reaction times can be chosen to minimize precipitation. • 3) Immediately add the 1:1 diluted Kunitz domain polypeptide solution directly to the PEG powder and quickly dissolve the PEG by vortexing. Once completely dissolved, cap the tube, wrap in foil and allow to react while slowly rocking/tumbling for 2.5-3 hours at 2-8° C. to 25° C. • 4) Quench the reaction by adding 1/9th. volume of 1 M Tris, pH 8.0 for 30-60 minutes at 2-8° C. to 25° C. while slowly rocking/tumbling. • 5) Carefully and slowly adjust the pH of the quench reaction mixture to ˜ pH 7 with small additions of 1N HCl while mixing. • 6) The neutralized reaction can be stored at 2-8° C. or frozen at −20° C. to −80° C. until purification. The direct addition of the Kunitz domain polypeptide solution to PEG powder can help simplify the number of steps in the reaction process and reduce hydrolysis prior to reaction.

[5] = Acute and subchronic 4-week studies of aerosolised DX-890 in cynomolgus monkeys; format: in vivo
[6] = Clinical studies in healthy human volunteers, inhalation at 8 increasing doses; format: in vivo; conditions: inhaled mass up to about 72 mg
[7] = 14-day daily nebulization in 12 healthy volunteers; format: in vivo, human
Protocol: It is possible, for example, to deliver DX-890 to the lung by nebulization. DX-890 activity was detected in broncho-alveolar lavages of volunteer inhaling nebulized DX-890. 12 healthy volunteers received during 14 days a single daily dose of DX-890, by nebulization lasting 5 or 20 minutes, corresponding to estimated inhaled mass of 3.75 or 15 mg respectively. […] No clinical or biological abnormalities were observed.

[8] = Resistance to oxidative and proteolytic inactivation; format: physicochemical
Excerpt: DX-890 is derived from the second Kunitz-type domain of inter-α-inhibitor protein (ITI-D2) and can be produced by fermentation in Pichia pastoris. It includes 56 amino acids, with a predicted MW of 6,237 Daltons.

[9] = mouse, in vivo
Protocol: as §1, §2, §3, §4, §5, §6

[10] = rabbit, in vivo
Protocol: as §7, §8, §3, §4, §5, §6

[11] = molecular target: T1, hNE of sputum from cystic fibrosis children (Homo sapiens, UniProt P08246); conditions: in vitro, ex vivo and in vivo pharmacological studies (Delacourt et al. 2002); cited from earlier work
T1 construct: hNE of sputum from cystic fibrosis children; from tissue; host or cells: sputum from cystic fibrosis children
T1 sequence (P08246 30-247 limits assumed): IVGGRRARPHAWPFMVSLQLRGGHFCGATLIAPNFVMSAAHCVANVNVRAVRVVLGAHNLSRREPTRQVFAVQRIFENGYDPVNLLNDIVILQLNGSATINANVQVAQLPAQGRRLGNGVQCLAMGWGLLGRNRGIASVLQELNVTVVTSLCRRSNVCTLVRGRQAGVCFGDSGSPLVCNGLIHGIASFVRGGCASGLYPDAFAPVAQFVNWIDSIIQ

[12] = allometric extrapolation from mice and rabbits
[13] = allometric extrapolation, restated in days
[14] = 12 healthy volunteers, 14 days single daily dose, nebulization, inhaled mass 3.75 or 15 mg

Question: Which “Extrapolated long half life clearance phase” value [1, 12] does the source give for “4 × PEG5-DX-1000: DX-1000 with four attached 5 kDa PEG moieties (4×5 kDa PEG/peptide) (MHSFCAFKAETGPCRARFDRWFFNIFTRQCEEFIYGGCEGNQNRFESLEECKKMCTRD; not fully specified; cysteine pairing not given here; also: four attached 5 kDa PEG moieties (4×5 kDa PEG/peptide))” here?
Answer: 210 h

Question: And the “Extrapolated long half life clearance phase” value [1, 13]?
Answer: about 9 days

Question: And the “Clearance (%) alpha phase” value [2]?
Answer: 38%

Question: What about the “Clearance (%) beta phase” value [2] of the same substance?
Answer: 62%

Question: And the “T1/2 alpha” value [2]?
Answer: 0.3 h

Question: And the “T1/2 beta” value [2]?
Answer: 12.5 h

Question: And the “Clearance (%) alpha phase” value [3]?
Answer: 34%

Question: And the “Clearance (%) beta phase” value [3]?
Answer: 32%

Question: And the “Clearance (%) gamma phase” value [3]?
Answer: 34%

Question: What about the “T1/2 alpha” value [3] of the same substance?
Answer: 1.9 min

Question: And the “T1/2 beta” value [3]?
Answer: 3 h

Question: And the “T1/2 gamma” value [3]?
Answer: 69.3 h

Question: Which “Extrapolated long half life clearance phase” value [1, 12] does the source give for “5 × PEG5-DX-890: modified DX-890 with five attached 5 kDa PEG moieties (mPEG-SPA) (EACNLPIVRGPCIAFFPRWAFDAVKGKCVLFPYGGCQGNGNKFYSEKECREYCGVP; not fully specified; cysteine pairing not given here; also: five attached 5 kDa PEG moieties (mPEG-SPA))” here?
Answer: 330 h

Question: And the “Extrapolated long half life clearance phase” value [1, 13]?
Answer: about 14 days

Question: What about the “Clearance (%) alpha phase” value [2] of the same substance?
Answer: 33%

Question: And the “Clearance (%) beta phase” value [2]?
Answer: 67%

Question: And the “T1/2 alpha” value [2]?
Answer: 1.1 h

Question: What about the “T1/2 beta” value [2] of the same substance?
Answer: 20.2 h

Question: And the “Clearance (%) alpha phase” value [3]?
Answer: 28%

Question: What about the “Clearance (%) beta phase” value [3] of the same substance?
Answer: 34%

Question: And the “Clearance (%) gamma phase” value [3]?
Answer: 38%

Question: What about the “T1/2 alpha” value [3] of the same substance?
Answer: 2.8 min

Question: What about the “T1/2 beta” value [3] of the same substance?
Answer: 4.5 h

Question: What about the “T1/2 gamma” value [3] of the same substance?
Answer: 97.6 h

Question: With “DX-88: a kallikrein inhibitor, a Kunitz domain with three available lysines (SEQ ID NO:24) (EAMHSFCAFKADDGPCRAAHPRWFFNIFTRQCEEFIYGGCEGNQNRFESLEECKKMCTRD; Synthetically generated peptide)” as the substance, how does the Solubility upon dilution [4] read?
Answer: relatively stable in terms of solubility upon dilution

Question: With “DX-890: 56-amino-acid Kunitz domain (SEQ ID NO:23) derived from ITI-D2; inhibitor of human neutrophil elastase (EACNLPIVRGPCIAFFPRWAFDAVKGKCVLFPYGGCQGNGNKFYSEKECREYCGVP; Synthetically generated peptide)” as the substance, how does the “Extrapolated long half life clearance phase” value [1, 12] read?
Answer: 8.4 h

Question: And the “Clinical or biological toxicity, histopathological lesions” value [5]?
Answer: no signs of clinical or biological toxicity

Question: What about the “Safety of administration by inhalation” value [6] of the same substance?
Answer: safe

Question: What about the Adverse events [7, 14] of the same substance?
Answer: no significant adverse event

Question: What about the Tolerability [7, 14] of the same substance?
Answer: excellent

Question: And the “DX-890 activity in broncho-alveolar lavages” value ([7]; volunteer inhaling nebulized DX-890)?
Answer: detected

Question: And the Solubility upon dilution [4]?
Answer: may precipitate over time

Question: And the “Resistance to oxidative and proteolytic inactivation” value [8]?
Answer: resistant to oxidative and proteolytic inactivation

Question: And the “T1/2 alpha” value [9]?
Answer: 1.3 min

Question: What about the “T1/2 beta” value [9] of the same substance?
Answer: 0.987 h

Question: What about the “T1/2 alpha” value [10] of the same substance?
Answer: 1.7 min

Question: And the “T1/2 beta” value [10]?
Answer: 3.4 h

Question: And the “Effect against lesions induced by hNE of sputum from cystic fibrosis children” value [11]?
Answer: protective effect

Question: What about the “Clearance (%) alpha phase” value [2] of the same substance?
Answer: 79%

Question: And the “Clearance (%) beta phase” value [2]?
Answer: 21%

Question: What about the “Clearance (%) alpha phase” value [3] of the same substance?
Answer: 83%

Question: What about the “Clearance (%) beta phase” value [3] of the same substance?
Answer: 17%

Question: With “DX-1000: a human plasmin inhibitor, a Kunitz domain with three available lysines (SEQ ID NO:25) (EAMHSFCAFKAETGPCRARFDRWFFNIFTRQCEEFIYGGCEGNQNRFESLEECKKMCTRD; Synthetically generated peptide)” as the substance, how does the “Extrapolated long half life clearance phase” value [1, 12] read?
Answer: 1.7 h

Question: And the Solubility upon dilution [4]?
Answer: relatively stable in terms of solubility upon dilution

Question: And the “Clearance (%) alpha phase” value [2]?
Answer: 87%

Question: What about the “Clearance (%) beta phase” value [2] of the same substance?
Answer: 13%

Question: What about the “T1/2 alpha” value [2] of the same substance?
Answer: 0.025 h

Question: What about the “T1/2 beta” value [2] of the same substance?
Answer: 0.448 h

Question: And the “Clearance (%) alpha phase” value [3]?
Answer: 85%

Question: What about the “Clearance (%) beta phase” value [3] of the same substance?
Answer: 15%

Question: And the “T1/2 alpha” value [3]?
Answer: 0.9 min

Question: And the “T1/2 beta” value [3]?
Answer: 1 h
